From the supplement of paper PMC6757056
± gives the standard deviation of the averaged measurements.

B1: library; a variant is named by its letters at N, in order (parent)
chain: GCUGUCACCGGUGCUUGGUACGUUAUAUUCAGCCGGUCUGAUGAGUCUNNNNNNAGACGAAACAGC

Assays:
[1] = variants of: B1; assay: FACS-Seq fitted mean relative fluorescence mCherry/BFP without ligand (log10 relative fluorescence); HEK293T overexpressing SLC46A1; higher = higher reporter protein expression; conditions: without (6R,S)-folinic acid; ligand present: no
Method in brief: (§1)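 Reporter cells were enriched HEK293T libraries transduced by lentivirus with mCherry behind the ribozyme switch and with an EF1α-BFP marker. Following 48 h with or without ligand, they were sorted into 6 mCherry/BFP bins, and bin genomic DNA was PCR-amplified, barcoded and MiSeq-sequenced. Fluorescence was computed as the fitted normal mean of the bin counts. The fit used log10(mCherry/BFP), with scaling to five spiked-in control ribozymes.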

[2] = variants of: B1; assay: normalized RNA/DNA level without ligand (relative to sTRSVctl = 100) (log10 (% of sTRSVctl)); HEK293T overexpressing SLC46A1; higher = less ribozyme self-cleavage, higher mRNA level; conditions: without (6R,S)-folinic acid; ligand present: no
Protocol: (§2)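 Hammerhead (sTRSV) ribozyme switch libraries with a ligand aptamer grafted on stem I and a randomized N4-6 loop II, cloned into the 3' UTR of mCherry and transiently transfected into HEK293T cells; RNA-Seq 72 h post transfection with ligand added 1 h before transfection; RNA read count / plasmid DNA read count normalized to the non-cleaving sTRSVctl (x100), log10; sequences with >100 DNA reads. FACS-Seq: lentiviral library sorted into 6 bins after 48 h ligand, log-normal fit mean of mCherry/BFP scaled to controls. Printed sequences are partial switch sequences.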

[3] = variants of: B1; assay: FACS-Seq fitted mean relative fluorescence mCherry/BFP with ligand (log10 relative fluorescence); HEK293T overexpressing SLC46A1; ligand concentration (+) FACS-Seq: 6 mM; higher = higher reporter protein expression; conditions: with (6R,S)-folinic acid; ligand present: yes
Method in brief: as §1

[4] = variants of: B1; assay: normalized RNA/DNA level with ligand (relative to sTRSVctl = 100) (log10 (% of sTRSVctl)); HEK293T overexpressing SLC46A1; ligand concentration (+) RNA-Seq: 6 mM; higher = less ribozyme self-cleavage, higher mRNA level; conditions: with (6R,S)-folinic acid; ligand present: yes
Protocol: as §2

| Variant | FACS-Seq fitted mean (log10) [1] | normalized RNA/DNA level without ligand (log10) [2] | FACS-Seq fitted mean (log10) [3] | normalized RNA/DNA level with ligand (log10) [4] |
| --- | --- | --- | --- | --- |
| UAUGAU | 0.263 ± 0.038 | 1.911 ± 0.013 | 0.486 ± 0.099 | 1.97 ± 0.027 |
| UAUGAC | 0.193 ± 0.17 | 1.971 ± 0.01 | 0.413 ± 0.083 | 2 ± 0.053 |
| AUAUUC | -0.738 ± 0.81 | 2.035 ± 0.019 | -1.5 ± 0.9 | 2.031 ± 0.01 |
| UUUAUG | 0.307 ± 0.0054 | 1.79 ± 0.024 | 0.315 ± 0.17 | 1.96 ± 0.041 |
| GUAGCU | 0.643 ± 0.11 | 2.009 ± 0.01 | 0.287 ± 0.14 | 1.998 ± 0.0026 |
| GCCUUA | 0.12 ± 0.15 | 1.98 ± 0.027 | -0.0974 ± 0.14 | 1.99 ± 0.037 |
| GAAUAA | -0.184 ± 0.011 | 1.976 ± 0.0046 | -0.234 ± 0.28 | 1.989 ± 0.016 |
| GUUCGC | 0.511 ± 0.017 | 2.07 ± 0.024 | 0.368 ± 0.16 | 2.05 ± 0.025 |
| GCGGAG | 0.2 ± 0.093 | 1.89 ± 0.022 | 0.18 ± 0.029 | 2.01 ± 0.051 |
| UGAGGG | 0.114 ± 0.058 | 1.657 ± 0.016 | 0.587 ± 0.016 | 1.95 ± 0.063 |
| GGUAUA | 0.316 ± 0.031 | 1.987 ± 0.0071 | 0.271 ± 0.15 | 2 ± 0.032 |
| GAAGGC | 0.492 ± 0.035 | 1.951 ± 0.006 | 0.635 ± 0.019 | 2.009 ± 0.0033 |
| GGUACA | -0.547 ± 0.083 | 2.066 ± 0.0024 | -0.647 ± 0.18 | 2.07 ± 0.036 |
| CGAGUU | 0.1373 ± 0.00078 | 1.997 ± 0.012 | 0.394 ± 0.014 | 2 ± 0.031 |
| AGUAUG | 0.41 ± 0.013 | 1.89 ± 0.022 | 0.586 ± 0.1 | 1.994 ± 0.019 |
| GAUUCA | 0.437 ± 0.14 | 1.985 ± 0.0095 | 0.333 ± 0.013 | 2.01 ± 0.025 |
| GUCAAG | 0.249 ± 0.027 | 1.974 ± 0.0083 | 0.168 ± 0.075 | 2.03 ± 0.045 |
| AAAUUG | 0.0771 ± 0.044 | 1.921 ± 0.0078 | 0.102 ± 0.18 | 2.02 ± 0.061 |

| Variant | FACS-Seq fitted mean (log10) [1] | normalized RNA/DNA level without ligand (log10) [2] | FACS-Seq fitted mean (log10) [3] | normalized RNA/DNA level with ligand (log10) [4] |
| --- | --- | --- | --- | --- |
| GAUAUA | 0.295 ± 0.015 | 1.96 ± 0.005 | 0.482 ± 0.11 | 2 ± 0.028 |
| UACACA | 0.187 ± 0.0057 | 1.974 ± 0.012 | -0.044 ± 0.049 | 1.9892 ± 0.0017 |
| CGAAAG | -0.0838 ± 0.12 | 1.9719 ± 0.00015 | 0.0563 ± 0.36 | 1.98 ± 0.027 |
| GACCAA | 0.358 ± 0.039 | 2.0328 ± 0.00084 | 0.42 ± 0.074 | 2.03 ± 0.043 |
| GUGGUU | 0.311 ± 0.089 | 2.014 ± 0.0041 | 0.443 ± 0.013 | 2.02 ± 0.037 |
| CUGGAA | 0.184 ± 0.035 | 1.9175 ± 0.00021 | 0.243 ± 0.021 | 1.97 ± 0.028 |
| CGUAAU | 0.544 ± 0.015 | 1.93 ± 0.029 | 0.552 ± 0.14 | 1.96 ± 0.022 |
| CGUAAA | 0.203 ± 0.0032 | 1.956 ± 0.0076 | 0.334 ± 0.32 | 1.977 ± 0.017 |
| AAGGAU | 0.466 ± 0.0051 | 1.917 ± 0.0072 | 0.53 ± 0.073 | 1.966 ± 0.013 |
| AUGGCG | 0.284 ± 0.024 | 1.91 ± 0.022 | 0.359 ± 0.058 | 2.04 ± 0.031 |
| GGGGAA | 0.571 ± 0.12 | 1.996 ± 0.0088 | 0.428 ± 0.4 | 2.06 ± 0.034 |
| GUAUUU | 0.142 ± 0.24 | 2 ± 0.022 | 0.173 ± 0.0069 | 2.01 ± 0.033 |
| GAGCUA | 0.516 ± 0.2 | 2.0209 ± 0.0014 | 0.415 ± 0.15 | 2.04 ± 0.035 |
| GAAGAA | -0.708 ± 0.014 | 1.973 ± 0.0039 | -0.827 ± 0.004 | 2.03 ± 0.04 |
| AUGACG | 0.318 ± 0.062 | 1.941 ± 0.0037 | 0.394 ± 0.14 | 2.02 ± 0.022 |
| AAACGU | 0.248 ± 0.096 | 1.966 ± 0.011 | 0.326 ± 0.22 | 2 ± 0.024 |
| CGCAGC | 0.491 ± 0.09 | 2.01 ± 0.033 | 0.645 ± 0.4 | 2.01 ± 0.031 |
| GCAGUA | 0.218 ± 0.051 | 1.98 ± 0.022 | 0.482 ± 0.12 | 2.02 ± 0.038 |
